Reference: patent US20160304625A1 (WELT BIO MOLECULAR PHARMACEUTICAL, published 2016)

Experiments:
[1] = target: human membrane bound IgM with kappa light chain (mIgM-kappa) (human, UniProt P01871 1-474); test: cell-based or functional assay
[2] = target: T1, mIgG proximal domain peptide ELQLEESCAEAQDGELDG (human); test: competition ELISA, block 'Blocked by mAb 1', mIgG-PD
T1 construct: also called mIgG-PD; 18-mer mIgG
T1 peptide: ELQLEESCAEAQDGELDG

Chain of human membrane bound IgM with kappa light chain (mIgM-kappa) (P01871 whole entry, the tested form may be a part): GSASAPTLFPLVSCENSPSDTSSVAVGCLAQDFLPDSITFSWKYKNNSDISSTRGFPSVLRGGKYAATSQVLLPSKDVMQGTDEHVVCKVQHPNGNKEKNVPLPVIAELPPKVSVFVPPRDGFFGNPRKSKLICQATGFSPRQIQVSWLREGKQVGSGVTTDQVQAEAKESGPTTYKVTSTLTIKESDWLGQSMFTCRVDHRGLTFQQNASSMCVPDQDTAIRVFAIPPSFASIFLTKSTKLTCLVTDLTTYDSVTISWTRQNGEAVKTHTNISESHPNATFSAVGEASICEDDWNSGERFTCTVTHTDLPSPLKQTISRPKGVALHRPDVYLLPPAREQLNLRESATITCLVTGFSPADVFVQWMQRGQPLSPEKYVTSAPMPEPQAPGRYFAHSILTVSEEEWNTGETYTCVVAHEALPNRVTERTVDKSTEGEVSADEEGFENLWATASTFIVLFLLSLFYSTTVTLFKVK

B1: monoclonal antibody mAb4-2b (antibody, mouse IgG1, V domains shown)
VH: EVQLEESGAELVKPGASLKLSCKASGYTFTSYWMNWVKQRPGQGLEWIGIIHPNSGSTNYNEKFKTKATLTVDKSSSTAYMQLSSLTSEDSAVYYCARTRGNYGMDYWGQGTSVTVSS
VL: DIVMTQSHKFMSTSVGDRVSITCKASQDVSTAVAWYQQKPGQSPTLLIYSASYRNTGVPDRFTGSGSGTDFTFTISSVQAEDLAVYYCQQHFSIPPLTFGAGTKLELKR
[1]
  clonogenic capacity of CA 46: 100 fold
[2]
  binding result: no binding
